Values quoted from earlier work in PMC10379010, “Short Peptides of Innate Immunity Protein Tag7 (PGLYRP1) Selectively Induce Inhibition or Activation of Tumor Cell Death via TNF Receptor” (International Journal of Molecular Sciences, 2023).

Test system: TNFR1
Parameters: method as in 3 sources, ref [14] = [14]; PMID 32093269; doi:10.3390/cells9020488; 14. Romanova E.A. Sharapova T.N. Telegin G.B. Minakov A.N. Chernov A.S. Ivanova O.K. Bychkov M.L. Sashchenko L.P. Yashin D.V. A 12-mer Peptide of Tag7 (PGLYRP1) Forms a Cytotoxic Complex with Hsp70 an ||| ref [15] = [15]; PMID 34163464; doi:10.3389/fimmu.2021.622471; 15. Telegin G.B. Chernov A.S. Kazakov V.A. Romanova E.A. Sharapova T.N. Yashin D.V. Gabibov A.G. Sashchenko L.P. A 8-mer Peptide of PGLYRP1/Tag7 Innate Immunity Protein Binds to TNFR1 Receptor and Inh ||| ref [10],[11] = [10]; PMID 26183779; doi:10.1074/jbc.M115.639732; 10. Yashin D.V. Ivanova O.K. Soshnikova N.V. Sheludchenkov A.A. Romanova E.A. Dukhanina E.A. Tonevitsky A.G. Gnuchev N.V. Gabibov A.G. Georgiev G.P. Tag7 (PGLYRP1) in Complex with Hsp70 Induces Altern || [11]; PMID 32636466; doi:10.1038/s41598-020-68088-x; 11. Sharapova T.N. Romanova E.A. Soshnikova N.V. Belogurov A.A. Jr. Lomakin Y.A. Sashchenko L.P. Yashin D.V. Autoantibodies from SLE patients induce programmed cell death in murine fibroblast cells th
Conditions: death under action of a specific ligand of TNFR1 or DNA-hydrolyzing autoantibodies; ref [10],[11]

B1: Tag7: innate immunity protein Tag7 (PGLYRP1), ligand of the TNFR1 receptor; recombinant (protein)
chain: QETEDPACCSPIVPRNEWKALASECAQHLSLPLRYVVVSHTAGSSCNTPASCQQQARNVQHYHMKTLGWCDVGYNFLIGEDGLVYEGRGWNFTGAHSGHLWNPMSIGISFMGNYMDRVPTPQAIRAAQGLLACGVAQGALRSNYVLKGHRDVQRTLSPGNQLYHLIQNWPHYRSP
  Inhibition of death of tumor cells, Tag7: inhibits the death of tumor cells
